According to US20060104978A1, “Methods and compositions for PDGF-C activation and inhibition” (LUDWIG INSTITUTE FOR CANCER RESEARCH, priority 2003, published 2006):

What was measured:
[1] = target: T1, latent PDGF-DD (Homo sapiens, UniProt Q9GZP0); assay: Cotransfection assay in COS-1 cells: protease plus full-length PDGF-D; assay type: cell-based; settings: COS-1 conditioned medium, immunoblot
T1 construct: cotransfected with full-length PDGF-C (Li et al, 2000), full-length PDGF-D (Bergsten et al, 2001); expressed in transfected cells; host or cells: COS-1 cells
Description: (§1) A cotransfection assay was established to identify serine proteases able to cleave and activate latent PDGF-CC. Expression plasmids encoding the relevant enzymes and full-length PDGF-C were cotransfected into COS-1 cells, and aliquots of the conditioned media from the transfectants were subjected to SDS-PAGE and immunoblotting using antibodies to the growth factor domain of PDGF-C. […] As a specificity control, the ability of tPA and NT to use full-length PDGF-DD as the substrate in the cotransfection assay was analysed. […] One difference in the latter results, as compared with the results from the cotransfection assay, was that purified tPA generated a second intermediate species of 32 kDa using latent PDGF-CC as the substrate. […]
To test the endogenous expression of PDGF-CC, subconfluent AG1523 cells and primary fibroblast cultures were cultured in serum-free DMEM overnight. […] In the case of the primary cultures, total protein concentration was measured and normalized (Bradford, 1976). […] PDGF-C and PDGF-D were detected by immunoblotting using affinity-purified polyclonal rabbit antibodies against PDGF-C (Li et al, 2000) and PDGF-D (Bergsten et al, 2001), respectively. The His6-tagged proteins were detected using an anti-His monoclonal antibody (C-terminal, Invitrogen). tPA was detected using sheep polyclonal antibodies against human tPA (ab9030, Abcam).

[2] = target: T2, latent PDGF-CC (Homo sapiens, UniProt Q9NRA1); assay: Cotransfection assay in COS-1 cells: protease plus full-length PDGF-C; assay type: cell-based; settings: COS-1 conditioned medium, immunoblot, 22 kDa species under reducing conditions
T2 construct: cotransfected with full-length PDGF-C (Li et al, 2000), full-length PDGF-D (Bergsten et al, 2001); expressed in transfected cells; host or cells: COS-1 cells
Description: as §1, with “substrate. It is possible that this intermediate is the result of digestion by plasmin contamination in the tPA preparation, since the size of the fragment is similar to that of plasmincleaved PDGF-CC previously reported (Li et al, 2000).” for “substrate.”
To test the endogenous expression of PDGF-CC, subconfluent AG1523 cells and primary fibroblast cultures were cultured in serum-free DMEM overnight. […] In the case of the primary cultures, total protein concentration was measured and normalized (Bradford, 1976). […]

T2 sequence (Q9NRA1 23-345): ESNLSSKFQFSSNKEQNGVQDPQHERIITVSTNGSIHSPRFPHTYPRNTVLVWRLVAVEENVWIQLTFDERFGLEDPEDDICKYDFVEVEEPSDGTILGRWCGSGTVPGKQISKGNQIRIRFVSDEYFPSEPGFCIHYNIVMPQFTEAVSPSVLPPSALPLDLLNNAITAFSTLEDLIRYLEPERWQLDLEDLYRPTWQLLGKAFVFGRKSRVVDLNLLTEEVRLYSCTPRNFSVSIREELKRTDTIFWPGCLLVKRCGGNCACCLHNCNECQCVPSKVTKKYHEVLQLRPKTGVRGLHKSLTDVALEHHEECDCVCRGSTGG

B1: neurotrypsin: human neurotrypsin, trypsin-like serine protease cloned from AG1523 cells (protein)
chain: FDSVLNDSLHHSHRHSPPAGPHYPYYLPTQQRPPRTRPPPPLPRFPRPPRALPAQRPHALQAGHTPRPHPWGCPAGEPWVSVTDFGAPCLRWAEVPPFLERSPPASWAQLRGQRHNFCRSPDGAGRPWCFYGDARGKVDWGYCDCRHGSVRLRGGKNEFEGTVEVYASGVWGTVCSSHWDDSDASVICHQLQLGGKGIAKQTPFSGLGLIPIYWSNVRCRGDEENILLCEKDIWQGGVCPQKMAAAVTCSFSHGPTFPIIRLAGGSSVHEGRVELYHAGQWGTVCDDQWDDADAEVICRQLGLSGIAKAWHQAYFGEGSGPVMLDEVRCTGNELSIEQCPKSSWGEHNCGHKEDAGVSCTPLTDGVIRLAGGKGSHEGRLEVYYRGQWGTVCDDGWTELNTYVVCRQLGFKYGKQASANHFEESTGPIWLDDVSCSGKETRFLQCSRRQWGRHDCSHREDVSIACYPGGEGHRLSLGFPVRLMDGENKKEGRVEVFINGQWGTICDDGWTDKDAAVICRQLGYKGPARARTMAYFGEGKGPIHVDNVKCTGNERSLADCIKQDIGRHNCRHSEDAGVICDYFGKKASGNSNKESLSSVCGLRLLHRRQKRIIGGKNSLRGGWPWQVSLRLKSSHGDGRLLCGATLLSSCWVLTAAHCFKRYGNSTRSYAVRVGDYHTLVPEEFEEEIGVQQIVIHREYRPDRSDYDIALVRLQGPEEQCARFSSHVLPACLPLWRERPQKTASNCYITGWGDTGRAYSRTLQQAAIPLLPKRFCEERYKGRFTGRMLCAGNLHEHKRVDSCQGDSGGPLMCERPGESWVVYGVTSWGYGCGVKDSPGVYTKVSAFVPWIKSVTKL
cleavage and activation of latent PDGF-DD by the coexpressed protease [1]: neither of the two enzymes was able to cleave and activate latent PDGF-DD
cleavage of latent PDGF-CC by the coexpressed protease [2]: lacked proteolytic activity toward latent PDGF-CC
